Columns and labels:
p-Tau-441 = p-Tau-441 (UniProt P10636)
Tau-441 (P301L) = Tau-441 (P301L) (UniProt P10636)
α-synuclein = α-synuclein (UniProt P37840)
Tau-410 = Tau-410 (UniProt P10636)
Boc-QAR-AMC (ES014) = system: T1, Boc-QAR-AMC (ES014)
T1 sequence: QAR

Chain of Tau-410 (P10636 other isoform, or with tags, fused parts or gaps): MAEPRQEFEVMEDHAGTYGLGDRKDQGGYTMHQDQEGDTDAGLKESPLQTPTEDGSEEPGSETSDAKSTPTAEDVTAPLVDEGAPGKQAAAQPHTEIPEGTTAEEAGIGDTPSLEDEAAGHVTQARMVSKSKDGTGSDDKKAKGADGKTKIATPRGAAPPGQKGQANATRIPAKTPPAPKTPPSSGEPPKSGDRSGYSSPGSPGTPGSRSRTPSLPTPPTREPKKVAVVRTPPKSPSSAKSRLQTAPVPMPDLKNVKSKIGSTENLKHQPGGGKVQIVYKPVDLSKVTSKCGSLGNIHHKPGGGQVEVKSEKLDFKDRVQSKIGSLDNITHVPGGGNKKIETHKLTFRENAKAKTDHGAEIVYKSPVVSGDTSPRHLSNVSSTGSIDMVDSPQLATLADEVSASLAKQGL
Chain of Tau-441 (P301L) (P10636 other isoform, or with tags, fused parts or gaps P301L): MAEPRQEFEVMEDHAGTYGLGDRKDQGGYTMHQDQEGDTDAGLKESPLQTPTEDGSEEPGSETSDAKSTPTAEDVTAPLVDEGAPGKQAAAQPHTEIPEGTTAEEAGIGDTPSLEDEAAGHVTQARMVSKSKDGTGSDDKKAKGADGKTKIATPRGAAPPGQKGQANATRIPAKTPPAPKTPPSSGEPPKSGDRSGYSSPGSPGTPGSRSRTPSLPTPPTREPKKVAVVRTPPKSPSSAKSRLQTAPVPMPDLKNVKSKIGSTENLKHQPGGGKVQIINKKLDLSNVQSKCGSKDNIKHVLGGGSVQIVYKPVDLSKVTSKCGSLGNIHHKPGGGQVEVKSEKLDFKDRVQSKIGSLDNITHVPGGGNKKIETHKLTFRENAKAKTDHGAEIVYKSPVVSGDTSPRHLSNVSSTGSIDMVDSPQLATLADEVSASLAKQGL
Chain of p-Tau-441 (P10636 whole entry, looked up): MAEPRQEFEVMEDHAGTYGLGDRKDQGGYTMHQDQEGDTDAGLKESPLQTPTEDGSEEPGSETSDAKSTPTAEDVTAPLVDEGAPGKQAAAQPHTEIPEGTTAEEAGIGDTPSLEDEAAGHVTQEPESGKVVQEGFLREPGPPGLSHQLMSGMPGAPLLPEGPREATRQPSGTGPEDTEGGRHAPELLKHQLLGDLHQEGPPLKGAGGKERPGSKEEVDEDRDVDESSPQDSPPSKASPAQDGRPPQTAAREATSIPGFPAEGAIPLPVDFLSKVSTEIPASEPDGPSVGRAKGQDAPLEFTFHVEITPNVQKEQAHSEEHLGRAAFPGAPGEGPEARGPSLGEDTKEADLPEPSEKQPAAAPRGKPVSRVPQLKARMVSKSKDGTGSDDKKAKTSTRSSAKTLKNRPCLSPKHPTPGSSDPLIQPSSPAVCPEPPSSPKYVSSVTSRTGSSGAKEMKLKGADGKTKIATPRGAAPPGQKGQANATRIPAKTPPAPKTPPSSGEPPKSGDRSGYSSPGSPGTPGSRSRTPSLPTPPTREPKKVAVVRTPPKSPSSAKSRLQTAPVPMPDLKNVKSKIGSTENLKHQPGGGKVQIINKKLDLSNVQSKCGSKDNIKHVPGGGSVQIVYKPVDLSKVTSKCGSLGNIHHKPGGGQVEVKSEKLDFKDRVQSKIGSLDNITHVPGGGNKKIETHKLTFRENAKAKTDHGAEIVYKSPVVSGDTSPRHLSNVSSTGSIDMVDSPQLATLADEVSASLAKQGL

Substance	casein digestion by resin-immobilized protease, RFU over time (Bodipy-labelled casein)	casein digestion by resin-immobilized protease, RFU (520 nm) over time (Bodipy-labelled casein)	casein digestion by resin-immobilized protease, fluorescence (RFU) at 5 and 60 min (Bodipy-labelled casein)	casein digestion, fluorescence (RFU) of Bodipy-labelled casein after 1 h against protease concentration in solution (Bodipy-labelled casein)	casein-digestion activity, immobilized protease, fluorescence (Bodipy-labelled casein)	casein-digestion activity, immobilized protease, fluorescence (FIG. 2B) (Bodipy-labelled casein)	casein-digestion activity, protease in solution, fluorescence (Bodipy-labelled casein)	% digestion at 0 min (p-Tau-441)	% digestion at 1 min (p-Tau-441)	% digestion at 5 min (p-Tau-441)	% digestion at 60 min (p-Tau-441)	digestion on immobilized protease column (FIGS. 3B, 3C, 3E, 3F and Table 2) (p-Tau-441)	digestion on immobilized protease column, SDS-PAGE silver stain (FIG. 3A) (Tau-441 (P301L))	loss of the Tau-441 (P301L) band on a silver-stained SDS-PAGE gel after incubation on the protease column (Tau-441 (P301L))	% digestion at 0 min (α-synuclein)	% digestion at 1 min (α-synuclein)	digestion on immobilized protease column (FIGS. 3D and 3G and Table 2) (α-synuclein)	% digestion at 0 min (Tau-410)	% digestion at 1 min (Tau-410)	% digestion at 5 min (Tau-410)	other results
Cathepsin D resin	no signal: the line falls from 0 to about -6000 RFU at 120 min, at or below the control resin (about 0) over the whole time range	–	–	–	–	–	–	–	–	–	–	–	–	–	–	–	–	–	–	–	–
elastase	rises from 0 to about 40000 RFU at 60 min and about 95000 RFU at 120 min; highest curve; control resin stays at about 0	rises from 0 to about 107000 RFU at 60 min and about 150000 RFU at 120 min; Control-Resin (no protease) stays at or slightly below 0	bar at 5 min about 1.5x10^7 RFU, bar at 60 min about 4.3x10^7 RFU; signal grows with time; no control bar drawn	near 0 at about 0.006 ug/ml, rises steadily to about 8.5x10^7 RFU at 100 ug/ml on a log axis; still rising, no upper plateau; highest of the three curves	exhibited casein-digestion activity at 5 minute and 60 minute incubation times	exhibited casein-digestion activity at 60 minute and 120 minute incubation times	exhibited casein-digestion activity having linear reaction kinetics up to approximately 6 µg/ml of each protease	0%	33%	93%	100%	rapidly degraded	rapidly degraded	no band in the Elastase column lanes at 2, 10 and 20 min; the No protease column lanes show a strong band of equal strength at 2, 10 and 20 min, just above the second labelled marker	0%	71%	rapidly degraded	0%	28%	50%	% digestion at 60 min (Tau-410): 81%; digestion on immobilized protease column (FIGS. 3B, 3C, 3E, 3F and Table 2) (Tau-410): rapidly degraded
kallikrein-6 (KLK6) activated by lysyl endopeptidase	close to the control at 60 min (about 1000-2000 RFU), then about 19000 RFU at 120 min; control resin stays at about 0	–	–	–	also exhibited casein-digestion activity at 120 minute incubation time	–	–	–	–	–	–	–	–	–	–	–	–	–	–	–	cleavage of fluorogenic peptide substrate, immobilized protease, 30, 60, 120 min (Boc-QAR-AMC (ES014)): exhibited protease activity at all time points tested; cleavage of the fluorogenic peptide substrate by resin-immobilized protease, AMC fluorescence (RFU) over time (Boc-QAR-AMC (ES014)): about 65000 RFU at 30 min, about 108000 at 60 min and about 215000 at 120 min, still rising; Control resin + ES014 stays at 0
trypsin	rises from 0 to about 24000 RFU at 60 min and about 76000 RFU at 120 min; control resin stays at about 0	rises from 0 to about 46000 RFU at 60 min and about 58000 RFU at 120 min; Control-Resin (no protease) stays at or slightly below 0	bar at 5 min about 1.0x10^7 RFU, bar at 60 min about 2.2x10^7 RFU; lowest of the three groups; no control bar drawn	near 0 up to about 0.2 ug/ml, rises slowly to about 1.4x10^7 RFU at 100 ug/ml; no upper plateau; lowest of the three curves	exhibited casein-digestion activity at 5 minute and 60 minute incubation times	exhibited casein-digestion activity at 60 minute and 120 minute incubation times	exhibited casein-digestion activity having linear reaction kinetics up to approximately 6 µg/ml of each protease	0%	70%	100%	100%	rapidly degraded	rapidly degraded	no band in the Trypsin column lanes at 2, 10 and 20 min; the No protease column lanes show a strong band of equal strength at 2, 10 and 20 min	0%	90%	rapidly degraded	0%	59%	65%	% digestion at 5 min (α-synuclein): 100%; % digestion at 60 min (α-synuclein): 100%; % digestion at 60 min (Tau-410): 93%; digestion on immobilized protease column (FIGS. 3B, 3C, 3E, 3F and Table 2) (Tau-410): rapidly degraded
